The assay has as its target T1, rhACE2 (ACRO, Human ACE2/ACEH Protein, His Tag, #AC2-H52H8) (human, UniProt Q9BYF1 18-740).
T1 construct: not shown: His tag
The assay is described as follows: ELISA, rhACE2 coated at 0.2 ug/well, antibody at 0.02-2.5 ug/ml, anti-human-Fc-HRP, absorbance at 450 nm. In general terms: An ELISA detects its analyte on a solid surface through an enzyme-linked reagent.

T1 sequence (Q9BYF1 18-740 limits assumed): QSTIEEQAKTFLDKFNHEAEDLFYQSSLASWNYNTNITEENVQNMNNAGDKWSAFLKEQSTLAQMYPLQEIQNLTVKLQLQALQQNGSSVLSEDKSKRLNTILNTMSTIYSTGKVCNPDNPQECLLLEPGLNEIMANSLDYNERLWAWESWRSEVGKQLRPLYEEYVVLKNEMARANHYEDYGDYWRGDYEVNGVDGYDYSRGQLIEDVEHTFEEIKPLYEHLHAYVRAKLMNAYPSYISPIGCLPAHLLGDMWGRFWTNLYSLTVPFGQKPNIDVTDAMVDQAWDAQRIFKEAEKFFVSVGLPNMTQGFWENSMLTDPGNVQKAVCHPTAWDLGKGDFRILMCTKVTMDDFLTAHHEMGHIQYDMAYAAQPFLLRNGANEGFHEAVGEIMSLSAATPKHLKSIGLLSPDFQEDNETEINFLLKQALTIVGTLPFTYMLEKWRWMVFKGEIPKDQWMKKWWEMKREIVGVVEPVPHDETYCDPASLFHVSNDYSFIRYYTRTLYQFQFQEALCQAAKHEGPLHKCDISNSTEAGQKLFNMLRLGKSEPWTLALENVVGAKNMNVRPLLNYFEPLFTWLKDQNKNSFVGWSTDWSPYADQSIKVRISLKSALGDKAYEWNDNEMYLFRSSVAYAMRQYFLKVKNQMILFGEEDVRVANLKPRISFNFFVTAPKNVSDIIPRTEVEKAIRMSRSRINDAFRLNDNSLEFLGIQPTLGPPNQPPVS

B1: C8 (Fc fusion)
VL: QSALTQPASASGSPGQSVTISCTGTSSDVGGYNYVSWYQQHPGKAPKLMIYDVSKRPSGVSDRFSGSKSGNTASLTISGLQAEDGADYYCSSYRRGRTVVFGGGTKLTVL
VH: QVQLQQWGGGLVQPGGSLRLSCAASGFTFSSYAMSWVRQAPGKGLEWVSAISGSGGSTYYADSVKGRFTISRDNSKNTLYLQMNSLRAEDTAVYYCAKNYFGNPRGFDYWGQGTMVTVSS
Turning to B1, the binding result was “binds”.

B2: C11 (Fc fusion)
VL: ETTLTQSPGTLSVSPGERVTLSCRASQSVSSYLAWYQQKPGQAPRLLIYGASTRATGIPDRFSGSGSGTDFTLTISRLEPEDFAVYYCQQYGISPLNFGGGTKVEIK
VH: QVQLVQSGAEVKKPGSSVKVSCKASGGTFSSYAISWVRQAPGQGLEWMGGVIPIFGTANYAQKFRGRVTMTTDTSTSTAYMELRSLTSDDTAVYYCASPQGTWSTFLEWQGAFSVWGQGTTVTVSS
As for B2, the binding result is “binds”.

B3: C32 (Fc fusion)
VL: DIQMTQSPAIMSASPGERVTMTCSASSSIRYIYWYQQKPGSSPRLLIYDTSNVAPGVPFRFSGSGSGTSYSLTINRMEAEDAATYYCQEWSGYPYTFGGGTKVEIKR
VH: QVQLVQSGAEVKKPGSSVKVSCKASGGSFSSYAISWVRQAPGQGLEWMGGIIPIFGTANYAQKFQGRVTITADESTSTAYMELSSLRSEDTAVYYCANLRGGSSHYGMDVWGQGTLVTVSS
Turning to B3, the binding result was “binds”.
